Experimental data: the supplement of paper PMC12764529
± gives the half width of the 95% confidence interval.

Assays:
[1] = folding stability dG unfold (combined trypsin and chymotrypsin); higher = more stable
In short: (§1)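 Bayesian fitting of sequencing counts gave K50 for each design. Unfolding free energy followed by setting this against a sequence-predicted unfolded-state K50 and a shared folded-state K50, either per protease or with trypsin and chymotrypsin combined. The designs, under 80 residues and lacking cysteine, were digested in a PA-tagged cDNA display format at 11 threefold-diluted protease concentrations and without protease, and only those with AlphaFold2 dimer inter-PAE above 15 were kept.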

[2] = folding stability dG unfold from trypsin proteolysis; higher = more stable
In short: as §1

[3] = folding stability dG unfold from chymotrypsin proteolysis; higher = more stable
In short: as §1

Sequence	folding stability dG unfold [1] [kcal/mol]	folding stability dG unfold [2] [kcal/mol]	folding stability dG unfold [3] [kcal/mol]
SAGGSAAIPLEFELPNGERVTVYYDPETGLFTVEVEVRFGNEKGEPPEVRFRFEVDSLVDLLDFLASAGGSA [r15_31_TrMRF]	3.49 ± 0.093	2.51 ± 0.13	3.88 ± 0.039
SAGGSAAITFPSDKTATVLSEEYDPVKKTTTVKMKVGNKEVTATLSPDGTVTIKLPDGKEETYPVGSAGGSA [r15_111_JUSTAS]	1.35 ± 0.099	1.18 ± 0.057	1.41 ± 0.016
SAGGSAALELVEEVSEFYDPNTGKKTTLVVARKDGKPILILIPPSGATVYDASNGNKLFEIPPELLSAGGSA [r15_85_JUSTAS]	0.951 ± 0.065	0.61 ± 0.03	1.16 ± 0.074
SAGGSAALVLSREEFDGEVLLTLRDPETGEELLARLTYVPEENLVRLETTFPDGSTTTSVLPASALSAGGSA [r15_1055_JUSTAS]	1.75 ± 0.033	1.794 ± 0.017	1.59 ± 0.059
SAGGSADEELLEKAKEALKKAEPPKIVVLNLPLPSGKELKVTLDPTTNKFTAEFPDGGSKTFDFPESAGGSA [r15_977_JUSTAS]	0.858 ± 0.12	1.05 ± 0.11	0.86 ± 0.096
SAGGSADIKIIKLPEKNELVILVPGEFDENVPLVLHDEGGPSWEVVDARVERVGDDLIITAKVRKSSAGGSA [r15_838_TrMRF]	0.691 ± 0.099	0.594 ± 0.037	0.701 ± 0.049
SAGGSADKITVRVMPSPDGMYRVKIWHPGKKREYWMNPDDPDKMLEEFADEINPDRPIKVEVEPYKSAGGSA [r15_925_TrROS]	0.467 ± 0.18	-0.919 ± 0.87	0.913 ± 0.16
SAGGSADPDDKEQKIKVEIETYRLEDNGMEVTRIELEGHGMPIYIARFPDGRMFIFTANGELEQIPSAGGSA [r15_617_TrROS]	2.41 ± 0.16	1.97 ± 0.14	2.71 ± 0.059
SAGGSADPDSPYVIRFNKPYTTFSPDGTPIELTEDVLKRFKSEEEAKKAKEELEKKGAKVEPVEGSSAGGSA [r15_117_JUSTAS]	-0.159 ± 0.23	-0.767 ± 0.41	0.242 ± 0.31
SAGGSADPEKVKLIEVEVEVHVEYDPEKGTYTVKAEFPDLTLSFEVPADSIHPDEKFKAPVLILVLSAGGSA [r15_190_TrMRF]	3.29 ± 0.24	2.29 ± 0.091	3.7 ± 0.22
SAGGSADPGKPIQIAIMIHIDPEPGRIEIPIYIMDDNRVRPVSIEFTPAGTLKIEVGNKEIEIPIKSAGGSA [r15_507_TrROS]	2.24 ± 0.16	2.46 ± 0.17	2.01 ± 0.042
SAGGSADRVTVTVTVRVRDPATGEWREVTETVTVPAPLTLEITLPPGWRLRLTLEDGELRLEVEPESAGGSA [r2_109_TrROS_Hall]	3.93 ± 0.063	3.1 ± 0.096	4.26 ± 0.051
SAGGSADTITIFFPGMPPEFAKEILEAILYEQGWKPKSVSTERHPEKGMHTIEVRFPNGRKITIMFSAGGSA [r15_958_TrROS]	2.75 ± 0.052	2.18 ± 0.06	3.1 ± 0.016
SAGGSADVKITEVHNPHRNPNGRPFFMVRIKWPDNGTHTIMMNPNDLDDLLAQLPPNWKIDEIHPISAGGSA [r15_339_TrROS]	1.57 ± 0.049	1.39 ± 0.025	1.68 ± 0.055
SAGGSAEEELLKAIKEALEKAKEGETVELEITLEDGSTLRITFDAENGKITVTLPNGEKLELTIEPSAGGSA [r15_977_TrROS_Hall]	4.23 ± 0.16	3.18 ± 0.19	4.37 ± 0.18
SAGGSAEEIARKLAEELAEEGEEVEVEVVEVEVEKVDGKEKVIRIRVKVKLPNGEELELELEIKLDELSAGG [r13_215_TrROS_Hall]	2.43 ± 0.24	2.38 ± 0.16	2.18 ± 0.28
SAGGSAEELLKKLKIVEVKEVDGKLYIEIEVDEPGLTVEEIKEILKELNLDVPIEVKEVVVVEEKESAGGSA [r15_599_TrROS_Hall]	1.98 ± 0.11	1.69 ± 0.14	2.16 ± 0.062
SAGGSAEIEIVIVVPEGASEEQVKALAKELKEELEKLLKVKDKDGKEKEVKIKKIKITVIVLPKEESAGGSA [r15_717_TrROS_Hall]	2.42 ± 0.2	2.37 ± 0.087	2.56 ± 0.064
SAGGSAEKEVYLVPFESEEKREKLREALLAEPGIEEVKETEDGVLLVTVPKGLSDKVEKAIKEAGISAGGSA [r15_834_TrMRF]	1.17 ± 0.086	1.21 ± 0.047	1.08 ± 0.025
SAGGSAEKVEIKVTYDKETGKVTVEIRVEVDLSEEQLKKLKELAEELGLEVEVTVEVRYEPPPPKESAGGSA [r15_542_TrROS_Hall]	2.27 ± 0.49	2.99 ± 0.38	2.18 ± 0.31
SAGGSAENDRFIVRVTIQMRNPGDGEKRTHTIPWFEFEPGKPAEEFAIDIADDFGIDNIDVEVYPLSAGGSA [r15_540_TrROS]	1.57 ± 0.052	1.35 ± 0.023	1.68 ± 0.026

Sequence	folding stability dG unfold [1] [kcal/mol]	folding stability dG unfold [2] [kcal/mol]	folding stability dG unfold [3] [kcal/mol]
SAGGSAEPLVYELPDGTVVLLPPTTAVVYHRLSDGRVVVVGLEVDDPPDPEKALARARAVVEALPDSAGGSA [r15_748_TrMRF]	1.26 ± 0.13	0.067 ± 0.25	1.6 ± 0.11
SAGGSAETIETVSSTFPVFSEDDKPVAVVKTYIFKFEDGELVLTEVFTPDGKPVAVKVASLDEFLNSAGGSA [r15_755_TrMRF]	1.56 ± 0.071	1.27 ± 0.025	1.7 ± 0.045
SAGGSAETLTITLTVKPGETVTIKALFKAEDGSVYAVTATFTAEDEGTVTITVTRLPPGVKDLADLSAGGSA [r15_909_TrROS_Hall]	4.4 ± 0.16	2.83 ± 0.099	4.71 ± 0.1
SAGGSAEVELVKVEVNPDGPYVKATFRIPGGGDVAVLVFDPDRPNTARLIVRPPNNEPIAEIELPLSAGGSA [r15_974_TrMRF]	1.65 ± 0.2	1.52 ± 0.046	1.83 ± 0.28
SAGGSAEWKEKALKMGAKEVKEDPANGYLYVTFPGPGRTIVIWKKEEDGTVTKVKTVSPSVKVEYKSAGGSA [r15_247_JUSTAS]	0.491 ± 0.18	-0.292 ± 0.41	0.817 ± 0.27
SAGGSAGDKVVTVTATFTTTDPNGNEITIIAPITFLNGEGTAVIDAKAFNPTGELIAEATITVPIGSAGGSA [r15_967_TrMRF]	2.07 ± 0.087	1.69 ± 0.057	2.34 ± 0.028
SAGGSAGGAERIKNLLEDYGFELKDVEMDEPGSTKIHITPDNPSLRKDIKDKLPPGNVDSITDTSAGGSAGG [r6_84_TrROS]	0.882 ± 0.26	-0.0811 ± 0.14	1.33 ± 0.12
SAGGSAGGAKPPKTVTVKVEVTNADGETQTRTVTLTNLPKDLKPGDTVTLPETGQTARIVEITPSAGGSAGG [r6_560_TrROS_Hall]	3.17 ± 0.1	3.27 ± 0.078	3.02 ± 0.097
SAGGSAGGDEIADKVKDLLRKHGWPVKEVEVTVMPHPPGRVYVMIEITMEHPGKKWTMEIMVEVSAGGSAGG [r6_533_TrROS]	4.66 ± 0.13	3.15 ± 0.14	4.79 ± 0.054
SAGGSAGGDESSTPPVTTTSTTPLPDGSTVTVTSTTTYPDSTTTTTKTYSNGSTTTSTTTTPGSSAGGSAGG [r6_910_JUSTAS]	-0.285 ± 0.13	-0.0832 ± 0.051	-0.803 ± 0.35
SAGGSAGGDGLELKLTFTIPVTARSPLGGSYPVYLRLTLTYRLDDPRWELDLYALDPNGNWYPVSAGGSAGG [r6_393_TrMRF]	4.84 ± 0.1	3.66 ± 0.18	5.12 ± 0.092
SAGGSAGGDKKGKPKPQWVTIMFKVPDDDLPPEEIAKEFPGVKIERSPGMYMITVPVNGKWIPFSAGGSAGG [r6_739_TrROS]	1.13 ± 0.093	1.02 ± 0.039	1.25 ± 0.14
SAGGSAGGDNWYHITIFRMKIKEVEPRKDPDGEKEPQFNFKIKEVVTIPIPPNDPEKLKDALGASAGGSAGG [r6_738_TrROS]	1.37 ± 0.12	0.745 ± 0.079	1.84 ± 0.13
SAGGSAGGDPPNVKIEPEIEPRRDPDGKPYVKIPYTIELPDGRPIQIDMWIDPKNGNQGPHIHISAGGSAGG [r6_298_TrROS]	0.64 ± 0.54	0.817 ± 0.24	0.486 ± 0.31
SAGGSAGGDVVIIPEPSEEDKMIFTIVADGEEAPVVLTVEADNLADVVDFLKEHGLAAGHPDDGSAGGSAGG [r6_40_TrMRF]	0.679 ± 0.11	0.713 ± 0.065	0.637 ± 0.052
SAGGSAGGDYERDPNNGKMKMKPKVEPPPPPKIIQIQIPFPEEADDFMNELQDNGYPIYLSPGGSAGGSAGG [r6_872_TrROS]	0.745 ± 0.3	1.29 ± 0.18	0.179 ± 0.14
SAGGSAGGEDRLLLRVEVIVGGVPFEPVLEVDHPELRELLEEGRVLVVELPGGAVGRLYAEPLASAGGSAGG [r6_478_TrMRF]	0.811 ± 0.1	0.7 ± 0.049	0.704 ± 0.11
SAGGSAGGEEAPPPPVTVTVTIEVEENEDGTLTVRIEVRDEATGETRTITVTMTLEELEELAKASAGGSAGG [r6_995_TrROS_Hall]	2.78 ± 0.22	2.78 ± 0.11	2.56 ± 0.13
SAGGSAGGEEIAKKLGIEKAEIVEVKDNKITLKVKLKNGEELKIELYIDKKTKEIKIVKIEKVPSAGGSAGG [r6_526_TrROS_Hall]	2.88 ± 0.23	2.37 ± 0.079	3.11 ± 0.075
SAGGSAGGEERVRLPITLEVPVPLAPVLLVSPDGSERLVPLPSVTLRITLELELTKEEWEKLLSSAGGSAGG [r6_119_TrMRF]	3.16 ± 0.15	3.06 ± 0.2	3.36 ± 0.13
SAGGSAGGEIEILPGAKIVRVERRKDGSLLIVVEVDGKLYLFRFKDGKVEVIELPEGASLEELLSAGGSAGG [r6_680_TrROS_Hall]	4.92 ± 0.087	4.23 ± 0.14	4.99 ± 0.086
